# According to US20130039857:
# Experiments:
# [1] = molecular target: LKB1 (endogenous, in skeletal muscle and 3T3L1 adipocyte extracts) (UniProt Q9WTK7)
# [2] = system: 141 overlapping peptides (12-15 residues in length) corresponding to the LKB1 sequence
# [3] = system: His-LKB1 fusion protein (purified)
substance,measurement,setting,value
"Fyn-CA, constitutively active Fyn mutant (pcDNA3.1-Fyn-CA(Y527F)-V5)",tyrosine phosphorylation of endogenous LKB1 immunoprecipitated from transfected tibialis anterior muscle (PY100 immunoblot),[1],"In the absence of Fyn-CA, there was a relatively low level of LKB1 tyrosine phosphorylation that was significantly increased by the expression of Fyn-CA"
recombinant His-FynT kinase (Calbiochem),in vitro phosphorylation of an overlapping peptide array (Phosphosite Detector),[2],"This analysis identified five tyrosines (Y60, Y156, Y166, Y261, and Y365) as potential LKB1 phosphorylation acceptor sites for the Fyn kinase"
same,tyrosine phosphorylation in an in vitro kinase reaction (PY100 phosphotyrosine immunoblot),[3],purified His-LKB1-tagged fusion protein was tyrosine phosphorylated by purified recombinant Fyn kinase in vitro
Fyn expressed from pcDNA3.1-Fyn-V5,tyrosine phosphorylation of LKB1 immunoprecipitates from 3T3L1 adipocytes (PY100 immunoblot),[1],Immunoblotting of LKB1 immunoprecipitates with the PY100 phosphotyrosine antibody demonstrated Fyn-induced tyrosine phosphorylation of LKB1
